Measured values taken from article PMC3644619.

Target: hormone-binding domain (HBD) of ERα
Assay: two-hybrid

Chain of hormone-binding domain (HBD) of ERα (P03372 whole entry, the tested form may be a part): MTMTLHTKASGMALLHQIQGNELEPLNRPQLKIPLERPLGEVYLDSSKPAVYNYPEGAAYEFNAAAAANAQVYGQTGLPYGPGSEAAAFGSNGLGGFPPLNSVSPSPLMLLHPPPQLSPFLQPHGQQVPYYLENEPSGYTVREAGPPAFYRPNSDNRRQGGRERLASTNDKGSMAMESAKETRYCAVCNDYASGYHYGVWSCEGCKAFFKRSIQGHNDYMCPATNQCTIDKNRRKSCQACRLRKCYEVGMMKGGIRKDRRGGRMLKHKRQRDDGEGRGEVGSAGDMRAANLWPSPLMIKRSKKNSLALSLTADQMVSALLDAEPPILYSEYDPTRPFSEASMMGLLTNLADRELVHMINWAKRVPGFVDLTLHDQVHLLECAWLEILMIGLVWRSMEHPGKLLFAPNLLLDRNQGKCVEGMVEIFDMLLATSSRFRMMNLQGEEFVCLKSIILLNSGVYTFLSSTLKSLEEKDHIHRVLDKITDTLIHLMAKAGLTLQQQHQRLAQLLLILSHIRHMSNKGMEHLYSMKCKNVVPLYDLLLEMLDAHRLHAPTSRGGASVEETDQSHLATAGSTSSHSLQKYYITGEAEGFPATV
Chain of PNRC1d (Q12796 186-327): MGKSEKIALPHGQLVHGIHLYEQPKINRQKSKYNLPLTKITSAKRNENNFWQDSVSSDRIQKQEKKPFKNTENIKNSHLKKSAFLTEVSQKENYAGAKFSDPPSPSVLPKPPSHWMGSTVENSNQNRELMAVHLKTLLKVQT

fold increase of affinity compared to fl PNRC (two-hybrid β-galactosidase): > 10 fold
Substance: PNRC1d (from UniProt Q12796 186-327) (natural protein)
